The values that follow are results of earlier work, collected in PMC3702509, “Label Free Fragment Screening Using Surface Plasmon Resonance as a Tool for Fragment Finding – Analyzing Parkin, a Difficult CNS Target” (PLoS ONE, 2013).

The data set deals with UblD (Parkin ubiquitin-like domain) Ubl domain (Homo sapiens) (UniProt O60260).
Sequence of UblD (Parkin ubiquitin-like domain) Ubl domain (Homo sapiens) (O60260 1-76): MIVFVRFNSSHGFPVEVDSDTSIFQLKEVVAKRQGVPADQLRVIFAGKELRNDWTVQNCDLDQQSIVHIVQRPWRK

Sequence of Parkin (ΔUblD) ΔUblD (O60260 77-465, stated change not applied): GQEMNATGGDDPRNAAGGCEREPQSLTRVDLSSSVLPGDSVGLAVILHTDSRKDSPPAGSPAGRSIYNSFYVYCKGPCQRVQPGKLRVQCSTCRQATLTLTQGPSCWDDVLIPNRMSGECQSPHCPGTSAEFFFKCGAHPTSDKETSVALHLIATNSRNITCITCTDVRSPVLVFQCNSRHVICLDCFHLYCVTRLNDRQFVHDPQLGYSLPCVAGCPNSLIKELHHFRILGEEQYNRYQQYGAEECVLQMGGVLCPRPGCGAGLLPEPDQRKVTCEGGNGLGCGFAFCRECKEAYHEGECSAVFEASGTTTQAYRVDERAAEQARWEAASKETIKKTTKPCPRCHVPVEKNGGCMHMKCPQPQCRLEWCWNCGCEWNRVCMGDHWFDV

As usually defined, the Kd is the free concentration of one partner at which half of the binding sites on the other are occupied at equilibrium, for simple one-to-one binding. For the substance “Parkin (ΔUblD) ΔUblD (from UniProt O60260)”, the Kd was 2600 nM.
